Test results taken from the supplement of paper PMC5998384.

Tests used:
[1] = system: HeLa Kyoto; experiment: solubility in G1/S (NP-40 vs SDS abundance) (log2 ratio); higher = more soluble; conditions: cell cycle stage: G1/S
[2] = system: HeLa Kyoto; experiment: thermal stability score vs G1/S (z-score of summed log2 fold changes over temperatures); higher = more thermally stable than in G1/S
[3] = system: HeLa Kyoto; experiment: solubility change mitosis vs G1/S (difference of NP-40 vs SDS log2 ratios) (log2 ratio difference); higher = more soluble in mitosis
[4] = system: HeLa Kyoto; experiment: melting temperature (median over replicates), in situ; higher = more thermally stable
[5] = cell cycle stage: early G1 (4.5 h after nocodazole release)
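For melting temperature (median over replicates), in situ in this document: HeLa Kyoto cells synchronized by double thymidine or nocodazole block, proteins quantified by TMT10plex mass spectrometry, three independent biological replicates.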
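For solubility change mitosis vs G1/S (difference of NP-40 vs SDS log2 ratios) in this document: synchronized HeLa Kyoto cells (double thymidine block for G1/S, nocodazole release for mitosis), protein amounts in NP-40 versus SDS lysates quantified by mass spectrometry, three biological replicates.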
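For solubility in G1/S (NP-40 vs SDS abundance) in this document: HeLa Kyoto cells arrested at G1/S by double thymidine block, proteins quantified by TMT10plex mass spectrometry in mild NP-40 versus SDS extracts, three biological replicates.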
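For thermal stability score vs G1/S (z-score of summed log2 fold changes over temperatures) in this document: synchronized HeLa Kyoto cells, proteins quantified by TMT10plex mass spectrometry, three biological replicates, mitosis taken 0.5 h after nocodazole release, G1/S directly after double thymidine block.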

Sequence: MPTGFVAPILCVLLPSPTREAATVASATGDSASERESAAPAAAPTAEAPPPSVVTRPEPQALPSPAIRAPLPDLYPFGTMRGGGFGDRDRDRDRGGFGARGGGGLPPKKFGNPGERLRKKKWDLSELPKFEKNFYVEHPEVARLTPYEVDELRRKKEITVRGGDVCPKPVFAFHHANFPQYVMDVLMDQHFTEPTPIQCQGFPLALSGRDMVGIAQTGSGKTLAYLLPAIVHINHQPYLERGDGPICLVLAPTRELAQQVQQVADDYGKCSRLKSTCIYGGAPKGPQIRDLERGVEICIATPGRLIDFLESGKTNLRRCTYLVLDEADRMLDMGFEPQIRKIVDQIRPDRQTLMWSATWPKEVRQLAEDFLRDYTQINVGNLELSANHNILQIVDVCMESEKDHKLIQLMEEIMAEKENKTIIFVETKRRCDDLTRRMRRDGWPAMCIHGDKSQPERDWVLNEFRSGKAPILIATDVASRGLDVEDVKFVINYDYPNSSEDYVHRIGRTARSTNKGTAYTFFTPGNLKQARELIKVLEEANQAINPKLMQLVDHRGGGGGGGGRSRYRTTSSANNPNLMYQDECDRRLRGVKDGGRRDSASYRDRSETDRAGYANGSGYGSPNSAFGAQAGQYTYGQGTYGAAAYGTSSYTAQEYGAGTYGASSTTSTGRSSQSSSQQFSGIGRSGQQPQPLMSQQFAQPPGATNMIGYMGQTAYQYPPPPPPPPPSRK [DDX17]
- solubility in G1/S (log2) [1]: -0.381
- thermal stability score [2, 5]: 3.12
- thermal stability score ([2]; cell cycle stage: mitosis): 5.66
- solubility change mitosis (log2) [3]: 0.16
- melting temperature ([4]; cell cycle stage: G1/S): 49.1 °C
- melting temperature ([4]; cell cycle stage: mitosis): 49.8 °C

Sequence: MPTVSVKRDLLFQALGRTYTDEEFDELCFEFGLELDEITSEKEIISKEQGNVKAAGASDVVLYKIDVPANRYDLLCLEGLVRGLQVFKERIKAPVYKRVMPDGKIQKLIITEETAKIRPFAVAAVLRNIKFTKDRYDSFIELQEKLHQNICRKRALVAIGTHDLDTLSGPFTYTAKRPSDIKFKPLNKTKEYTACELMNIYKTDNHLKHYLHIIENKPLYPVIYDSNGVVLSMPPIINGDHSRITVNTRNIFIECTGTDFTKAKIVLDIIVTMFSEYCENQFTVEAAEVVFPNGKSHTFPELAYRKEMVRADLINKKVGIRETPENLAKLLTRMYLKSEVIGDGNQIEIEIPPTRADIIHACDIVEDAAIAYGYNNIQMTLPKTYTIANQFPLNKLTELLRHDMAAAGFTEALTFALCSQEDIADKLGVDISATKAVHISNPKTAEFQVARTTLLPGLLKTIAANRKMPLPLKLFEISDIVIKDSNTDVGAKNYRHLCAVYYNKNPGFEIIHGLLDRIMQLLDVPPGEDKGGYVIKASEGPAFFPGRCAEIFARGQSVGKLGVLHPDVITKFELTMPCSSLEINVGPFL [FARSB]
- solubility in G1/S (log2) [1]: 0.00374
- thermal stability score [2, 5]: 2.32
- thermal stability score ([2]; cell cycle stage: mitosis): 0.692
- solubility change mitosis (log2) [3]: -0.031
- melting temperature ([4]; cell cycle stage: G1/S): 50.4 °C
- melting temperature ([4]; cell cycle stage: mitosis): 50.2 °C

Sequence: MPVAGSELPRRPLPPAAQERDAEPRPPHGELQYLGQIQHILRCGVRKDDRTGTGTLSVFGMQARYSLRDEFPLLTTKRVFWKGVLEELLWFIKGSTNAKELSSKGVKIWDANGSRDFLDSLGFSTREEGDLGPVYGFQWRHFGAEYRDMESDYSGQGVDQLQRVIDTIKTNPDDRRIIMCAWNPRDLPLMALPPCHALCQFYVVNSELSCQLYQRSGDMGLGVPFNIASYALLTYMIAHITGLKPGDFIHTLGDAHIYLNHIEPLKIQLQREPRPFPKLRILRKVEKIDDFKAEDFQIEGYNPHPTIKMEMAV [TYMS]
- solubility in G1/S (log2) [1]: -0.0779
- thermal stability score [2, 5]: -0.449
- thermal stability score ([2]; cell cycle stage: mitosis): 1.58
- solubility change mitosis (log2) [3]: -0.0717
- melting temperature ([4]; cell cycle stage: G1/S): 49.2 °C
- melting temperature ([4]; cell cycle stage: mitosis): 49 °C

Sequence: MPVDLSKWSGPLSLQEVDEQPQHPLHVTYAGAAVDELGKVLTPTQVKNRPTSISWDGLDSGKLYTLVLTDPDAPSRKDPKYREWHHFLVVNMKGNDISSGTVLSDYVGSGPPKGTGLHRYVWLVYEQDRPLKCDEPILSNRSGDHRGKFKVASFRKKYELRAPVAGTCYQAEWDDYVPKLYEQLSGK [PEBP1]
- solubility in G1/S (log2) [1]: 0.607
- thermal stability score [2, 5]: -0.593
- thermal stability score ([2]; cell cycle stage: mitosis): -3.2
- solubility change mitosis (log2) [3]: 0.21
- melting temperature ([4]; cell cycle stage: G1/S): 56.9 °C
- melting temperature ([4]; cell cycle stage: mitosis): 57.3 °C

Sequence: MPVKGGTKCIKYLLFGFNFIFWLAGIAVLAIGLWLRFDSQTKSIFEQETNNNNSSFYTGVYILIGAGALMMLVGFLGCCGAVQESQCMLGLFFGFLLVIFAIEIAAAIWGYSHKDEVIKEVQEFYKDTYNKLKTKDEPQRETLKAIHYALNCCGLAGGVEQFISDICPKKDVLETFTVKSCPDAIKEVFDNKFHIIGAVGIGIAVVMIFGMIFSMILCCAIRRNREMV [CD9]
- solubility in G1/S (log2) [1]: -0.0106
- thermal stability score [2, 5]: 2.82
- thermal stability score ([2]; cell cycle stage: mitosis): 0.357
- solubility change mitosis (log2) [3]: -0.149
- melting temperature ([4]; cell cycle stage: G1/S): 62.4 °C
- melting temperature ([4]; cell cycle stage: mitosis): 60.4 °C
